Reference: PMC10199020

Target: NL-IL23R co-expressed with IL12Rβ1 (IL-23 receptor on cells) (UniProt Q5VWK5)
Assay: FRET or BRET; NanoBRET competition on living transfected HEK293T cells; 300 pM IL23-TMR displaced by unlabelled antagonist (concentration series or a single concentration); 1 h at 37 °C in HBSS with 1 mg/mL BSA

Chain of NL-IL23R co-expressed with IL12Rβ1 (IL-23 receptor on cells) (Q5VWK5 24-629, chain 1 of 2, other chains not shown): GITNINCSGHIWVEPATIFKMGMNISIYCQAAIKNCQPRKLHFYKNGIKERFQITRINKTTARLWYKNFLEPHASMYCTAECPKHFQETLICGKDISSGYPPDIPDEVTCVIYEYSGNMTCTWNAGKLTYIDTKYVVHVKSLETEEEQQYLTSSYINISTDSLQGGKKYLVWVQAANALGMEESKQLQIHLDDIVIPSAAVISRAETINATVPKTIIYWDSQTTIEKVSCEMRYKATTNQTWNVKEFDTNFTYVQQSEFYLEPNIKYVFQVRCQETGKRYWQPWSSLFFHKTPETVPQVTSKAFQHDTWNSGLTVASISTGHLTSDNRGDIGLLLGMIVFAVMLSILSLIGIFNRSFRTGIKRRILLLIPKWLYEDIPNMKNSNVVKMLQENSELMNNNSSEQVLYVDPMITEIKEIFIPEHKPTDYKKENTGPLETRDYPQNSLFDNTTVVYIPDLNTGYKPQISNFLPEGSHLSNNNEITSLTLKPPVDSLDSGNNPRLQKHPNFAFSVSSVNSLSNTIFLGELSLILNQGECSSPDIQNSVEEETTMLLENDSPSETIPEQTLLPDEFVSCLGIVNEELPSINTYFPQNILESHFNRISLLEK

IL12p80 (from UniProt P29460 23-328) (ligand)
Ki: 0.469 nM
